Data on eleven molecules can be found in US20030216297A1, “Pharmaceutical composition” (SANKYO COMPANY, LIMITED, priority 2002, published 2003).

For data set [1], the system named is adjuvant-arthritis Lewis rat. Kind of data set: Adjuvant arthritis in Lewis rats, femur bone mineral density: OCIF complex with celecoxib. It counts as in vivo. As to conditions: distal ends of femurs, day 21 after adjuvant; celecoxib 1 mg/kg p.o. and/or Preparation 22 3.5 mg/kg i.p. daily, days 14 to 20. The protocol: Arthritis was induced in test groups of Lewis rats (eight-weeks old, female) according to the same procedure described in Example 2 above.
From the 14th to 20th days after injection of the adjuvant, celecoxib [Thomas D, P., et al., J. Med. Chem., 40, 1347-1365 (1997); WO-A-95/15316] suspended in a 0.5% tragacanth aqueous solution (manufactured by Nihon Funmatsu Yakuhin Co., Ltd.) at a concentration of 0.2 mg/ml was orally administered to each rat of one test group at a rate of 5 ml/kg each day so that the dose of […] administered was 1 mg/kg body weight. […]
Each rat was dissected on the 21 st day after injection of the adjuvant, and the right-and-left femurs were extracted. The bone mineral densities of the distal ends of the right-and-left femurs were measured using an X-ray measurement apparatus (Dual energy X-ray absorptiometry DCS-600R, manufactured by Aroka Co., Ltd.), and the average of each of the measured values was calculated, and was defined as the bone mineral density of the individual.
In order to evaluate the differences between the averages of the bone mineral densities of each group, significant difference was tested by Student's t-test, and the P value was calculated.

In data set [2] the test system is adjuvant-arthritis Lewis rat. Kind of data set: Adjuvant arthritis in Lewis rats, femur bone mineral density: OCIF complex with loxoprofen sodium. It counts as in vivo. As to conditions: distal ends of femurs, day 21 after adjuvant; loxoprofen sodium 5 mg/kg p.o. and/or Preparation 11 0.1 mg/kg i.p. daily, days 14 to 20. The protocol: This example was carried out according to the method described in C. V. Winder, et al. Arthritis Rheum 12 472 (1957). Heat-killed cells of Mycobacterium butyricum were pulverized in an agate mortar and then suspended in liquid paraffin sterilized with hot air to give a suspension having a cellular concentration of 2 mg/ml. This suspension was then subjected to ultrasonication so as to produce an adjuvant. 50 μl of the obtained adjuvant were injected intradermally at each of two sites in the base of the tail of a Lewis rat (eight-weeks old, female) (200 μg in total per rat), to induce arthritis in said rat. […] As a control, instead of the loxoprofen sodium, OCIF complex Preparation 11 or a combination thereof, only the solvents used for dissolving them were administered to the rat. […] The bone mineral densities of the distal ends of the right-and-left femurs were measured using an X-ray measurement apparatus (Dual energy X-ray absorptiometry DCS-600R, manufactured by Aroka Co., Ltd.), and the average of each of the measured values was calculated, and was defined as the bone mineral density of the individual. In order to evaluate the differences between the averages of the bone mineral densities of each group, significant difference was tested by Student's t-test, and the P value was calculated.

Data set [3] can be described thus: Measurement of isoelectric point by isoelectric electrophoresis gel. It counts as physicochemical. As to conditions: IEF PAGE mini gel, pH range 3 to 10, compared with pI markers. The text has this: The isoelectric point can be measured using any conventional isoelectric electrophoresis technique well-known to the skilled person in the art. OCIF is a basic protein and the isoelectric point thereof is about pI 9. […] Therefore, it is possible to readily distinguish complexed and uncomplexed OCIF using this technique.
The purified recombinant dimeric human OCIF, prepared as described in Preparation Example 1(a) above and the complex of OCIF and dextran sulfate prepared in Preparation Example 1(b) above which is designated Preparation Number 22 in Table 1 were applied separately to an isoelectric electrophoresis gel IEF PAGE mini (pH range of 3 to 10, manufactured by Iwaki Glass), using an IEF pH 3-7 buffer kit (Technical Frontier Co.) and a voltage was applied to the gel according to the following regime: 100 V for 1 hour, followed by 200 V for 1 hour and finally 500 V for 30 minutes. After completion of the electrophoresis, the resultant gel obtained in each case was stained with Coomassie Blue.
From the electrophoresis gels obtained above, it was determined that the isoelectric point of the dimeric human OCIF was about pI 9, and the isoelectric point of the complex of OCIF and dextran sulfate designated Preparation Number 22 was about pI 6.5 by comparing the band position of OCIF and that of the OCIF complex with pI markers.

A short description of data set [4]: Degree of adsorption to a heparin cross-linked column. It counts as physicochemical. As to conditions: applied and washed with 0.7 M NaCl, eluted with 2 M NaCl in 10 mM sodium phosphate buffer; OCIF by ELISA. The text has this: A preferred feature of the complexes used in the present invention that can be used to characterise them is their affinity to heparin. Heparin is a polysaccharide comprising D-glucosamine, D-glucuronic acid and D-iduronic acid which is partially or fully derivatised with sulfate and acetyl groups. A preferred feature of the complexes employed in the present invention is that the strength of adsorption of said complex of OCIF or an anlogue or variant thereof to heparin is lower than the strength of adsorption of the free, non-complexed OCIF or analogue or variant thereof. The degree of adsorption can be determined using a column packed with highly cross-linked. linked agarose beads on which has been immobilized heparin (e.g. heparin obtained from bovine intestinal mucosa). Suitable columns of this type include HiTrap heparin HP column, HiPrep 16/10 Heparin and Heparin Sepharose (all obtainable from Amersham Pharmacia). The strength of adsorption (the affinity) of the complex can be determined according to any suitable method that is well known to the person skilled in the art for determining the affinity of proteins to polysaccharides. […] Thus, typically the degree of adsorption of the complex to heparin can be determined as follows:
(a) A column packed with a support such as cross-linked agarose beads on which has been immobilized heparin is equilibrated with a buffer having a relatively low ionic strength (e.g. sodium phosphate buffer containing 0.1-0.8 M sodium chloride).
(b) The complex of the present invention that is being tested is dissolved in the same low ionic strength buffer as used in (a) and applied to the column and a first eluate is then collected (fraction A).
(c) The column is then washed further with the same low ionic strength buffer as used in step (a) and a second eluate is collected (fraction B).
(d) The column is then washed with a buffer having a relatively high ionic strength (e.g. sodium phosphate buffer containing 1.0-2.0 M sodium chloride) and a third eluate is then collected (fraction C).
(e) The amount of the complex present in each of fractions A, B and C [designated (α), (β) and (γ) respectively] is then determined (e.g. by an immunoassay).
(f) The degree of adsorption of the complex to heparin is then determined according to the following formula: [formula]
The degree of adsorption of the complexes of the present invention as measured by the above formula will vary to some extent depending upon the type of heparin column and the conditions under which the determination is carried out.
A heparin cross-linked column (HiTrap Heparin HP column, Lot. 289212, Amersham Bioscience) was pre-equilibrated with 5 ml of 10 mM sodium phosphate buffer containing 0.7 M sodium chloride. A preparation from Table 1 of Preparation Example 1 was taken and diluted to a final protein concentration of 0.1 mg/ml with 10 mM sodium phosphate buffer containing 0.7 M sodium chloride. 1 ml of the diluted solution thus obtained was applied to said column and 1 ml of a first eluate was collected (fraction A). Next, 5 ml of 10 mM sodium phosphate buffer containing 0.7 M sodium chloride were applied to said column and 5 ml of a second eluate were collected (fraction B). Finally, 4 ml of 10 mM sodium phosphate buffer containing 2M sodium chloride were applied to said column and 4 ml of an eluate were collected (fraction C).
100 μL of 0.1 M sodium hydrogen carbonate (pH 9.6), in which was dissolved an anti-human OCIF monoclonal antibody OI-19 (FERM BP-6420) at a concentration of 10 μg per ml, were transferred to each well of a 96-well microtitre plate (Maxisorp: NUNC Co Ltd.). The plate was sealed and then incubated at 4° C. overnight. At the end of this incubation time, the solution in each well was removed by decantation, 300 μL of 50% Block Ace (purchased from Dainippon Pharmaceutical Co., Ltd.) were added to each well, and then the plate was incubated at room temperature for 2 hours. […]
(ELISA stands for enzyme-linked immunosorbent assay.)

With `Cc1ccc(-c2cc(C(F)(F)F)nn2-c2ccc(S(N)(=O)=O)cc2)cc1` [Celecoxib, celecoxib, reference compound], the “Bone mineral density (average ± standard error)” value in data set [1] is given as 103.0 ± 1.8 mg/cm^2.

Regarding `CC(C(=O)O)c1ccc(CC2CCCC2=O)cc1` (stereo not shown) [Loxoprofen sodium, loxoprofen sodium, reference compound], the “Bone mineral density (average ± standard error)” value in data set [2] was 106.5 ± 0.8 mg/cm^2.

Turning to “OCIF: recombinant dimeric human osteoclastogenesis inhibitory factor, molecular weight about 120000, non-complexed”, the “isoelectric point (pI)” value in data set [3] is listed as roughly 9.

On to “Prep. 6: OCIF/DS5 complex: DS5 130 mg/ml, OCIF 6.5 mg/ml, 4 °C, pH 10.5, 48 h”, for which the “The degree of adsorption of the OCIF/DS complex to a heparin cross-linked column” value (“The degree” for short) in data set [4] is on record as 0.451.

As to “Prep. 7: OCIF/DS5 complex: DS5 130 mg/ml, OCIF 6.5 mg/ml, 4 °C, pH 10.5, 144 h”, the “The degree” value in data set [4] was determined as 0.183.

With “Prep. 8: OCIF/DS5 complex: DS5 130 mg/ml, OCIF 6.5 mg/ml, 4 °C, pH 10.5, 288 h”, the “The degree” value in data set [4] is reported as 0.153.

On to “Prep. 11: OCIF/DS5 complex: DS5 100 mg/ml, OCIF 5 mg/ml, 4 °C, pH 10.5, 18 h”, for which the “Bone mineral density (average ± standard error)” value in data set [2] is on record as 109.6 ± 2.1 mg/cm^2.

As to “Prep. 22: OCIF/DS5 complex: DS5 150 mg/ml, OCIF 5 mg/ml, 7 °C, pH 10.5, 168 h”, in data set [3], the “isoelectric point (pI)” value is roughly 6.5. The “The degree” value in data set [4] is reported as 0.264. Further, in data set [1], the “Bone mineral density (average ± standard error)” value worked out at 104.2 ± 2.1 mg/cm^2.

Turning to “Prep. 24: OCIF/DS5 complex: DS5 150 mg/ml, OCIF 5 mg/ml, 25 °C, pH 10, 24 h”, the “The degree” value in data set [4] amounted to 0.072.

With “Prep. 25: OCIF/DS5 complex: DS5 130 mg/ml, OCIF 6.5 mg/ml, 4 °C, pH 10.5, 24 h”, the “The degree” value in data set [4] is 0.611.

“Prep. 27: OCIF/DS5 complex: DS5 150 mg/ml, OCIF 5 mg/ml, 4 °C, pH 10.5, 144 h”: the “The degree” value in data set [4] came out at 0.141.
